Assay results taken from patent US20240301064A1.

Target: PD-1 on PD-1 reporter Jurkat cells
Assay: cell-based or functional assay

Substance CC-90006 (antibody) has an SHP-2 recruitment, Ig-tethered test article, PD-1 reporter Jurkat cells; EC50 of 2.94 nM and an SHP-2 recruitment, Ig-tethered test article, PD-1 reporter Jurkat cells; EC50 (second experiment) of 2.59 nM.
